Assay results published in US20080227085A1, “Methods and Systems for the Identification of Rna Regulatory Sequences and Compounds that Modulate their Function” (priority 2003, published 2008).

Tested on: general translation (reporter mRNA encoding firefly luciferase)
Assay: Inhibition of reporter mRNA translation by HCV-IRES RNA fragments in in vitro translation system (RRL, firefly luciferase)
Assay type: biochemical, rabbit
Conditions: RNA fragments preincubated with in vitro translation system before Fy Luc reporter mRNA; FIG. 3
Method: FIG. 3. […] An in vitro translation system was preincubated with the RNA fragments before addition of the reporter mRNA construct encoding firefly luciferase (Fy Luc). The inhibitory effects of each of the fragments on general translation were determined by monitoring luciferase activity upon addition of substrate. […] Domain I not analyzed due to lack of any predicted secondary structure.
The plasmid pGEM3-HCV2b-IRES contains sequence coding for nucleotides 18 to 356 (SEQ ID NO: 1) of HCV-IRES RNA (genotype 2b) inserted at the BamHI restriction endonuclease site of the cloning vector pGEM-3 (Promega Corp., Madison, Wis.; FIG. 2A). RNA secondary structure prediction algorithms, as well as biochemical and genetic data, support a representation of this sequence as shown in FIG. 2B. […]
Translation reactions were performed in vitro to determine the inhibitory effect of HCV IRESIII RNA and fragments thereof and contained (20 μl): 4 μl pre-treated RRL, 4 μl 5× Reaction Buffer A, 5 μl of HCV IRES RNA (1 μM in 20% B), 5 μl mRNA ([…]), and 2 μl 10% DMSO. […] Translation reaction was stopped and Luciferase activity was measured using ViewLux™ (Perkin-Elmer Scientific Instruments, Boston, Mass.; detector set at 10 sec measurement and 6× binning; FIG. 3) upon the addition of 50 μl LucLite-Plus™ luciferase assay reagent (Promega Corp., Madison, Wis.). […]

B1: domain III: domain III RNA fragment of the HCV-IRES UTR (SEQ ID NO: 26), minimal RNA element required for efficient translation inhibition (nucleic acid)
chain: GGCCCCCCCCUCCCGGGAGAGCCAUAGUGGUCUGCGGAACCGGUGAGUACACCGGAAUUACCGGAAAGACUGGGUCCUUUCUUGGAUAAACCCACUCUAUGUCCGGUCAUUUGGGCGUGCCCCCGCAAGACUGCUAGCCGAGUAGCGUUGGGUUGCGAAAGGCCUUGUGGUACUGCCUGAUAGGGUGCUUGCGAGUGCCCCGGGAGGUCUCGUA
modifications: Hepatitis C virus; domain III of HCV-UTR RNA
inhibition of translation of the reporter (luciferase activity): majority of inhibitory activity resides in domain III
